T1: Trop2 (UniProt P09758 27-323, limits assumed)
T1 sequence (looked up): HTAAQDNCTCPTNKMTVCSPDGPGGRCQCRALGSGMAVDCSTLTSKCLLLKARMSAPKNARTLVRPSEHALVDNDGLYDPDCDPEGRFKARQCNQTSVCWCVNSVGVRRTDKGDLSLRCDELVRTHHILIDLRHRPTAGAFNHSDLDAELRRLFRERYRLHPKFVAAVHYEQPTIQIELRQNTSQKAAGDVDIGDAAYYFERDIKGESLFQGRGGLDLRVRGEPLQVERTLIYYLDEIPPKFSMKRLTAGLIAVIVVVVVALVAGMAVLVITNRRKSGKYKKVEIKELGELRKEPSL

B1: Reference ADC-2 (Sacituzumab-Deruxtecan) (antibody, human IgG1, kappa, V domains shown)
VH: QVQLQQSGSELKKPGASVKVSCKASGYTFTNYGMNWVKQAPGQGLKWMGWINTYTGEPTYTDDFKGRFAFSLDTSVSTAYLQISSLKADDTAVYFCARGGFGSSYWYFDVWGQGSLVTVSS
VL: DIQLTQSPSSLSASVGDRVSITCKASQDVSIAVAWYQQKPGKAPKLLIYSASYRYTGVPDRFSGSGSGTDFTLTISSLQPEDFAVYYCQQHYITPLTFGAGTKVEIKR
modifications: Deruxtecan linker-drug conjugated after TCEP reduction of disulfide bonds (cysteine positions not stated); mean n=4.18 per antibody
B2: ADC-II-11-a (antibody, human IgG1, kappa, V domains shown)
VH: B1 VH
VL: B1 VL
modifications: linker-drug L-II-3 conjugated after TCEP reduction of disulfide bonds (cysteine positions not stated); mean n=3.73 per antibody
B3: ADC-III-28 (antibody, human IgG1, kappa, V domains shown)
VH: B1 VH
VL: B1 VL
modifications: linker-drug L-III-30 conjugated after TCEP reduction of disulfide bonds (cysteine positions not stated); mean n=3.67 per antibody

Target: T1, Trop2
Test: cell-based or functional assay

| Binder | IC50 (nM), inhibition of in vitro proliferation of Colo205 cells (CTG, 6 days) [nM] | IC50 (nM), inhibition of in vitro proliferation of SK-OV-3 cells (CTG, 6 days) [nM] |
| --- | --- | --- |
| B1 | 152 | 501 |
| B2 | 121 | 448 |
| B3 | 77.6 | 394 |

From US20230212182A1 (DUALITY BIOLOGICS SUZHOU, published 2023)
